Measured values published in the supplement of paper PMC10724198.
± gives the standard deviation of the averaged measurements.

System: Saccharomyces cerevisiae
Assay: protein stability index of tFT-peptide fusion (C-terminal peptide) (PSI (0-1 scale)); higher = more stable (slower turnover)
Details: genetic background: wild type; temperature: 30 C
Method: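 Multiplexed protein stability (MPS) profiling in S. cerevisiae. Random 12-aa peptides (tFT-X12 library) are fused to the C-terminus of a sfGFP-mCherry tandem fluorescent timer, after mCherry and a GGGS linker. Cells are FACS-sorted into 8 mCherry/sfGFP bins and deep-sequenced. The protein stability index (PSI) is the read-weighted bin average, scaled from 0 (unstable) to 1 (stable). Only peptides with >10 reads are reported; cells were grown at 30 °C in SC-His with glucose.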
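Also: PSI is a weighted mean of sequencing reads over stability bins, variants kept only with over 10 reads, mCherry proximal and sfGFP distal, peptide attached via GGGS linker.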

Sequence | protein stability index
AVYWRRIRRGRA | 0.6714 ± 0.0018
AWDGVESGRGLE | 0.67797 ± 0.00016
AWFCLGGRRGMV | 0.685 ± 0.023
AWGFHDAFGLGC | 0.605 ± 0.032
AWGGGSVVFWAV | 0.692 ± 0.055
AWGGRVGWPKRR | 0.734 ± 0.052
AWGPGCVVRGRE | 0.7151 ± 0.0012
AWVCRLDGPVGG | 0.634 ± 0.04
AWVLVVLGSSHR | 0.586 ± 0.05
AWVVVGEGKGWR | 0.717 ± 0.035
AWWWGCSSIGYW | 0.787 ± 0.085
AYCGGSNKCTTE | 0.732 ± 0.026
AYCGLEGFLGLG | 0.688 ± 0.051
AYLGFYLLPYSS | 0.717 ± 0.13
AYRKQGRGERKG | 0.65 ± 0.011
AYRLWQTESKFD | 0.699 ± 0.057
CAGSRIYCVSLS | 0.641 ± 0.062
CASGKVCVRFCW | 0.683 ± 0.033
CAVPTCSRVPIV | 0.601 ± 0.078
CCAVLSSMSSFD | 0.668 ± 0.053
CCFFPSLRSPSF | 0.726 ± 0.011
CCLSISSSLLDL | 0.675 ± 0.13
CCLSVSSHLPHS | 0.7096 ± 0.00068
CCPHMLLVLTNI | 0.509 ± 0.011
CCRDLWVWLVKW | 0.619 ± 0.071

Sequence | protein stability index
CCSLIPRAPSGR | 0.687 ± 0.051
CDWQMMKVQERS | 0.698 ± 0.021
CECRCECGIGDK | 0.632 ± 0.096
CEYRRLVISVFD | 0.547 ± 0.028
CFAPRAPIRRFF | 0.733 ± 0.032
CFCSLLSPSLFL | 0.751 ± 0.091
CFEGPSSRRYFV | 0.699 ± 0.083
CFGSRMGVVGFC | 0.726 ± 0.065
CFGVSVYIGLGV | 0.588 ± 0.011
CFGYRGAPFCGQ | 0.669 ± 0.063
CFKPLRLEPGCC | 0.665 ± 0.094
CFLCLAYGFFSF | 0.571 ± 0.03
CFLVLFAHPFVL | 0.555 ± 0.007
CFPLSPSCIFLR | 0.464 ± 0.077
CFSRCLSLLSSS | 0.636 ± 0.021
CGAALCSWEVVV | 0.627 ± 0.018
CGCVAVNSFPVL | 0.69 ± 0.011
CGGGGVVGAGWG | 0.728 ± 0.061
CGGSARAGVVFL | 0.699 ± 0.066
CGGWTRRSGDMV | 0.678 ± 0.042
CGHAGQTPRTSR | 0.718 ± 0.065
CGISTRYHNRES | 0.696 ± 0.023
CGLLEGGRCRKE | 0.7922 ± 0.0071
CGLVGVALSEGV | 0.65 ± 0.086
CGRACWTGEDDV | 0.68 ± 0.037

Sequence | protein stability index
CGRGCTRGVNLG | 0.689 ± 0.069
CGSWAGRAWPGR | 0.755 ± 0.014
CGVGWSWTWSGW | 0.698 ± 0.078
CGVYPQLSGGFG | 0.687 ± 0.018
CGWTSPSLVPTC | 0.791 ± 0.045
CGYAAGGELLQD | 0.705 ± 0.012
CHGCSGFSYAPS | 0.669 ± 0.039
CIALLTPPCIIF | 0.72 ± 0.065
CIDCGRKDIARL | 0.785 ± 0.066
CIPHVVPYSTGK | 0.697 ± 0.014
CITLLDILFRPS | 0.684 ± 0.019
CKKRSRCGNTIM | 0.755 ± 0.15
CKMGNQNIRLYV | 0.599 ± 0.033
CKPAGEGPTASM | 0.678 ± 0.037
CKVRSYDDFVLV | 0.6231 ± 0.002
CLAGLGPADFGM | 0.674 ± 0.057
CLATVFWHHVKF | 0.63 ± 0.058
CLAVPFSFRLVW | 0.613 ± 0.041
CLHSKPSPESRT | 0.687 ± 0.041
CLISDLRFVNKR | 0.69 ± 0.056
CLLIRAQRNALW | 0.64 ± 0.036
CLPCSGWLSWPH | 0.664 ± 0.0069
CLPLSPPVPHLR | 0.738 ± 0.12
CLPPSSIVPFIS | 0.59 ± 0.024
CLREYGGRGGWE | 0.706 ± 0.028

Sequence | protein stability index
CLRGFWSQFMRF | 0.678 ± 0.032
CLRKKYSNTLLM | 0.647 ± 0.028
CLRTVGIAQSSG | 0.7019 ± 0.00094
CLSAPFRSLLFL | 0.585 ± 0.051
CLSATTFSYVFA | 0.576 ± 0.0061
CLTRFFQPYGSL | 0.667 ± 0.059
CLTYPSFSLSSS | 0.635 ± 0.063
CMRVGGWFLFSL | 0.661 ± 0.051
CNFGLHSCALLY | 0.723 ± 0.033
CNVGAIVGLVWV | 0.6002 ± 0.0019
CPGNGVFYSGRG | 0.679 ± 0.014
CPLEYSEVVLVD | 0.6268 ± 0.0022
CPLSPLPSSAAP | 0.681 ± 0.042
CPPGFPRPSSPH | 0.689 ± 0.028
CPPTPSPSTLPT | 0.663 ± 0.016
CPRPHVLPLAYF | 0.646 ± 0.014
CPRSWWELLAID | 0.739 ± 0.045
CPSIVCSPTDPM | 0.679 ± 0.061
CPSRPPALPPPE | 0.66835 ± 0.00049
CPTLTCPRLPSP | 0.684 ± 0.11
CPVSWRPLCTVS | 0.6177 ± 0.0054
CQHPLRPRCLND | 0.6724 ± 0.0048
CRGAGGRTVING | 0.665 ± 0.043
CRGRWVAWSMGI | 0.7221 ± 0.0019
CRMEARHSVLKS | 0.554 ± 0.0087

Sequence | protein stability index
CRPVPGGLFVVS | 0.669 ± 0.064
CRRRWSAPGGSR | 0.7176 ± 0.0047
CRSGFEPSPHLG | 0.657 ± 0.029
CSAGLSDRGFCE | 0.663 ± 0.023
CSCSQYFHLPNV | 0.687 ± 0.017
CSGCSGSCSVLA | 0.646 ± 0.049
CSLRDRCAFSFG | 0.6982 ± 0.0052
CSLSLPAFSAPS | 0.669 ± 0.04
CSLVIRRRREVG | 0.659 ± 0.044
CSPGVSGVSSVD | 0.685 ± 0.026
CSPMFTRQPLPL | 0.645 ± 0.027
CSRDNRTSRSIL | 0.681 ± 0.032
CSSRDGLLWRFR | 0.731 ± 0.088
CSSTGVPGRRHE | 0.709 ± 0.013
CSTFFVRSLSFI | 0.63 ± 0.034
CSVFFFMGFLFA | 0.511 ± 0.13
CSVRGDVANYAF | 0.6457 ± 0.0028
CSVSACTVSLCC | 0.5849 ± 0.0017
CTCSGELSLRGV | 0.684 ± 0.011
CTLSFRVAFFSL | 0.5848 ± 0.00071
CTPSSLRPLMPS | 0.655 ± 0.073
CTRCKRDDYNIE | 0.6803 ± 0.006
CTRRACDVRAVL | 0.699 ± 0.025
CVAAASPFRLLY | 0.654 ± 0.04
CVAGHPPASPPP | 0.712 ± 0.059

Sequence | protein stability index
CVFGSHCRVLVV | 0.556 ± 0.028
CVGSLGVVVGWG | 0.724 ± 0.013
CVGSVRYRIRGS | 0.63 ± 0.06
CVLARVWMRGGR | 0.636 ± 0.023
CVLVVGVPAGGG | 0.611 ± 0.028
CVLYQLPPAYSF | 0.643 ± 0.029
CVQCRRPSEWLV | 0.698 ± 0.033
CVRARQLTLCIP | 0.5505 ± 0.0036
CVSWFWVGYWWG | 0.516 ± 0.0086
CVTGPIDKLRLL | 0.5947 ± 0.0023
CVVHLLIFGLCI | 0.5963 ± 0.0046
CVVVSCVCPFVV | 0.5739 ± 0.0036
CVVYLDVRLPVT | 0.58 ± 0.023
CVYGILPRPPDF | 0.671 ± 0.035
CWVHGRWVSGAS | 0.813 ± 0.051
CYFLAMPLYFPL | 0.622 ± 0.014
CYIGGEVEFVGW | 0.727 ± 0.0094
CYPIPEGWIGLM | 0.607 ± 0.045
DAAVQSGGRVAG | 0.481 ± 0.03
DACRLLGGRRCG | 0.717 ± 0.07
DAGGGKLFGNSK | 0.663 ± 0.019
DAPLGDLRAYTT | 0.747 ± 0.028
DAYLGKRESRLW | 0.615 ± 0.07
DCSCRRSISVLV | 0.54 ± 0.024
DCVSLFRVPRVA | 0.612 ± 0.028

Sequence | protein stability index
DCWAGWGLCGWG | 0.748 ± 0.044
DDAVTHTLWVSE | 0.692 ± 0.012
DDDHRKITGTSR | 0.707 ± 0.091
DDFQVFCSNGMG | 0.708 ± 0.018
DDGRRRAERGGG | 0.685 ± 0.047
DDSSSFPSLLSF | 0.753 ± 0.069
DDSVGKLFYCLF | 0.7 ± 0.03
DEDIHQTIGKKG | 0.716 ± 0.056
DEIRGERETKGR | 0.656 ± 0.036
DEMNEGHVPPGV | 0.718 ± 0.071
DERLNGWERGDV | 0.698 ± 0.07
DFSPPSPLPLPL | 0.721 ± 0.01
DFVLSASIGFTR | 0.673 ± 0.035
DGFWGGASHQGW | 0.699 ± 0.0089
DGHSAAAFCVRG | 0.748 ± 0.1
DGPSPAASPPRF | 0.757 ± 0.095
DGSGPSWGRKGR | 0.6942 ± 0.0043
DGSLTMTRTGFR | 0.704 ± 0.021
DGVAMCGLKASL | 0.643 ± 0.1
DGWTLCRVGCVG | 0.652 ± 0.061
DHVSVFSFVCFL | 0.633 ± 0.015
DICFGLLPPWPA | 0.755 ± 0.057
DICSNSGRQRFL | 0.685 ± 0.013
DIERSAAPRLLL | 0.727 ± 0.042
DIIRKKNKQGRI | 0.702 ± 0.035

Sequence | protein stability index
DILLPFQFLDDF | 0.6927 ± 0.00039
DILRSGVYDVCK | 0.7251 ± 0.00083
DITKNGKSKMLK | 0.664 ± 0.051
DIWEFYNNLYSS | 0.719 ± 0.013
DKGTMNRARGGS | 0.683 ± 0.024
DKKNIRIYNKTL | 0.669 ± 0.042
DKLLTYTLGARI | 0.69 ± 0.016
DLAIPPPRPRFF | 0.701 ± 0.013
DLHCRSAILALL | 0.594 ± 0.034
DLLCLWEFPSIP | 0.731 ± 0.12
DLPRLGLPRRAC | 0.63 ± 0.047
DLQACGATSKAS | 0.683 ± 0.059
DLSDPGHSLSIL | 0.68 ± 0.055
DLTPLSSSRLPP | 0.652 ± 0.04
DMPIVVDGSLVR | 0.684 ± 0.027
DNLFSPTLLWEL | 0.6674 ± 0.0034
DNSDIKKGARRI | 0.707 ± 0.014
DNSSLGSIGTDI | 0.645 ± 0.046
DPAPSPTGMCTR | 0.688 ± 0.016
DPLSPLPPPPPP | 0.635 ± 0.14
DPPLSGRAKGPH | 0.709 ± 0.02
